The numbers were not newly measured in PMC2912364, which cites them from elsewhere.

The data set deals with IL-15Rα (UniProt Q13261).
Chain of UniProt Q13261 (Q13261 31-205): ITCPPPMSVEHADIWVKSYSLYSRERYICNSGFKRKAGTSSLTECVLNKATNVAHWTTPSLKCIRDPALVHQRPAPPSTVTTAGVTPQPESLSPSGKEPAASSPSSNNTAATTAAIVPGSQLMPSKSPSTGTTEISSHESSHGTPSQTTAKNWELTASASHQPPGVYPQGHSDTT

As for IL-15 (from UniProt P40933), the Kd (in general, the equilibrium constant for the complex coming apart) is 0.038 nM.
